Source: US9555076B2, “Neuregulin based methods and compositions for treating cardiovascular diseases” (Zensun (Shanghai) Science & Technology, Co., Ltd., priority 2002, dated 2017)
Where “and” joins values, the source holds several entries; their conditions need not be identical. Identical values can stand only once.

Assays:
[1] = test system: toxic myocarditis caused by Adriamycin in rat; test: Serum troponin T (cTnT) level, Adriamycin rat model; assay type: in vivo, SD rat; details: Adriamycin 3.3 mg/kg iv once every week × 4, 5 weeks later
Method: 2 ml of arterial blood was withdrawn, serum extracted, frozen and stored at −20° C., determination of serum cTnT content was performed with electrochemistry irradiate method submitted to be carried out by Clinical Laboratory of Zhong Shan Hospital.

[2] = test system: toxic myocarditis caused by Adriamycin in rat; test: Heart size (heart weight/body weight, wall thickness), Adriamycin rat model; assay type: in vivo, SD rat; details: Adriamycin 3.3 mg/kg iv once every week × 4, 5 weeks later
Method: (§1) Heart was extirpated after thoracotomy (auricle should be reserved), the heart weight was measured after dried with absorbent paper, ratio of heart weight/body weight calculated; outer diameter of the heart was measured at ½ site of the vertically standing heart; medium part of the left ventricle was crosswise cut open, maximal thickness of free wall of the left ventricle measured; the heart was fixed with 10% formaldehyde, paraffin embedded and HE stained, observation of the myocardial structure carried out under optic microscope, give out pathologic score.

[3] = test system: toxic myocarditis caused by Adriamycin in rat; test: Survival rate, Adriamycin caused toxic myocarditis rat model; assay type: in vivo, SD rat; details: Adriamycin 3.3 mg/kg iv once every week × 4, 5 weeks later
Method: rhNRG-1β was injected into the tail vein within 24 hours after the first injection of Adriamycin, the injection of rhNRG-1 β was carried out once daily for 10 days. Dosage was adjusted according to the body weight, volume of the drug administered was 0.2 ml/100 g.
Based on the <<Guidance Principle of New Drug Preclinical Experiment>>, 3.3 mg/kg of Adriamycin was injected into the tail vein, once per week for consecutive 4 injections, establishing Adriamycin caused toxic myocarditis rat model.
(§2) rhNRG-1 β was injected into the tail vein within 24 hours after the first injection of Adriamycin. During the experiment, animal survival was dynamically monitored, heart function indexes (maximal rate of pressure increase within left ventricle, […], maximal rate of pressure decrease within left ventricle, −dp/dt, systolic end pressure of left ventricle LVPmax, diastolic end pressure of left ventricle LVPmin) were monitored at the 5th week. Section was made from the heart tissue and pathological changes examined.
Situation of survival was recorded weekly and the survival rate of the various experimental groups was calculated. Survival rate (%)=survival animal number/number of experimental animals×100.

[4] = test system: toxic myocarditis caused by Adriamycin in rat; test: Hemodynamics index, Adriamycin rat model; assay type: in vivo, SD rat; details: 5 weeks later
Method: as §2
Hemodynamics index such as carotid artery pressure, intra-ventricular pressure. dp/dt was measured with six lead physiology recorder. Major procedure: separate the right carotid artery, ligate its distal end and block its proximal end with arterial clamps, 20 G arteriovenous indwelling needle was inserted into the carotid artery, took out the medal stylet, loosened the artery clamps, push the plastic trocar further into appropriate depth, indwelled for 10 minutes, observed the wave style recorded by the physiology recorder, after it was stable, then recorded the carotid artery pressure and push the trocar further into the left ventricle, kept in place for 15 minutes, after it was stable, then recorded the dp/dt, −dp/dt, LVPmax and LVPmin.

[5] = test system: toxic myocarditis caused by Adriamycin in rat; test: Myocardial pathologic scoring, Adriamycin rat model; assay type: in vivo, SD rat; details: Adriamycin 3.3 mg/kg iv weekly × 4, 5 weeks later
Method: as §1
Scoring could be performed between grade 1 and grade 2 or between grade 2 and grade 3, e.g. grade 1.5, grade 2.5 etc. 6.3.3.3 Determination of Hemodynamics Index

Rhesus = Rhesus long-term toxicity study, 3 weeks iv plus 3 weeks convalescence; details: for heart rate in conscious animals (electrocardiography): every drug taken group
[6] = rat, Adriamycin 3.3 mg/kg iv once every week × 4
[7] = survived rat, Adriamycin 3.3 mg/kg iv weekly × 4

COc1cccc2c1C(=O)c1c(O)c3c(c(O)c1C2=O)C[C@@](O)(C(=O)CO)C[C@@H]3O[C@H]1C[C@H](N)[C@H](O)[C@H](C)O1 [Adriamycin, reference compound]
cTnT [1]: 0.2 ng/mL and 0.205 ± 0.072 ng/mL | Heart weight/body weight [2]: 0.0031 ± 0.0001^ | heart circumference [2]: 30.6 ± 0.1 mm | thickness of left ventricular wall [2]: 1.73 ± 0.16^ mm | survival rate [3]: 15% | LVPmax [4, 6]: 106.1 ± 21.2 mmHg | dp/dt [4, 6]: 2674 ± 446 mmHg/s | LVPmin ([4]; rat, Adriamycin 3.3 mg/kg iv once every week × 4, in mmHg): −10.0 ± 4.7 | −dp/dt ([4]; rat, Adriamycin 3.3 mg/kg iv once every week × 4, in mmHg/s): −2141 ± 596 | LVPmax as % of the normal value [4, 7]: 58% | LVPmin as % of the normal value [4, 7]: 37% | dp/dt as % of the normal value [4, 7]: 43% | −dp/dt as % of the normal value [4, 7]: 47% | relative morbidity rate [5]: 100%

B1: rhNRG-1 β: Recombinant human neuregulin fragment of 61 amino acid (SEQ ID NO:4), 3 disulfide bonds, expressed in E. coli (protein, listed as Homo sapiens)
chain: SHLVKCAEKEKTFCVNGGECFMVKDLSNPSRYLCKCPNEFTGDRCQNYVMASFYKAEELYQ
modifications: Human neuregulin beta-2 fragment
bone marrow smear (Rhesus; 7.5, 15, 75 μg/kg/d iv 3 weeks): No significant toxic pathologic changes | echocardiogram (Rhesus; 7.5, 15, 75 μg/kg/d iv 3 weeks): no significant abnormality in echocardiogram | fundus examination (Rhesus; 7.5, 15, 75 μg/kg/d iv 3 weeks): No abnormal changes | hematological, biochemistry examination, urine and fecal testing (Rhesus; 7.5, 15, 75 μg/kg/d iv 3 weeks): no significant toxicological changes | organ weight (Rhesus; 7.5, 15, 75 μg/kg/d iv 3 weeks): No abnormal changes in organ weight | body temperature (Rhesus; all animals, prior to and after the drug administration): no significant changes of body temperature | site of drug injection (Rhesus; drug taken groups): mild paleness, hardening of regional skin and vessels | general symptoms, gastrointestinal (Rhesus; each drug taken group, 1 week after the beginning of drug administration): Vomiting, nausea and salivation occurred in part of the animals | heart rate in conscious animals (electrocardiography) (Rhesus; 3-week of drug administration): significant reduction of heart rate | heart rate in conscious animals (electrocardiography) (Rhesus; 10-day of drug administration): no significant deceleration of heart rate | myocardium pathohistology (Rhesus; high dosage 75 μg/kg/d iv 3 weeks): could cause vacuole in the cytoplasma of myocardium | food ingestion (Rhesus; high dosage group 75 μg/kg/d): reduced significantly | body weight (Rhesus; high dosage group 75 μg/kg/d, self-comparison prior to and after drug): lowered markedly | recovery of hydrocephalus (Rhesus; high dosage group, 3 weeks after drug withdrawal): did not recover entirely | dosage level that did not cause pericardial effusion and hydrocephalus (Rhesus; iv daily 3 weeks, 3-week's convalescent period): 7.5 µg/kg/day
